Laboratory results: US20190071490A1 (BETH ISRAEL DEACONESS MEDICAL CENTER, published 2019)
Residue numbers refer to the chain shown, from its start. Each block holds one binder with its values, some of them ahead of it.

Tests used:
human α-CGRP 1-37 (WT) = target: T1, human α-CGRP 1-37 (WT) (human, C-terminal amide; N-terminal biotin when captured on the SA chip; 125I-labelled in the radioligand assay); test: Biacore, 37°C, Fab over CGRP on SA chip
T1 construct: also called α-human
T1 peptide: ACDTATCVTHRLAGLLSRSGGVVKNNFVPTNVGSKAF
Method: (§1) Biacore assay for affinity determination. […] All Biacore assays were conducted in HBS-EP running buffer (10 mM HEPES pH 7.4, 150 mM NaCl, 3 mM EDTA, 0.005% v/v polysorbate P20). CGRP surfaces were prepared by diluting the N-biotinylated CGRP to a concentration of less than 0.001 mg/mL into HBS-EP buffer and injecting it across the SA sensor chip using variable contact times. […] Samples were typically injected for 1 minute at 100 μL/min and dissociation times of at least 10 minutes were allowed. […] An entire titration series (typically generated in duplicate) was fit globally to a 1:1 Langmuir binding model using the BIAevaluation program. This returned a unique pair of association and dissociation kinetic rate constants (respectively, kₒₙ and koff) for each binding interaction, whose ratio gave the equilibrium dissociation constant (KD=koff/kₒₙ). […]

rat α-CGRP (1-37) = target: T2, rat α-CGRP (1-37) (rat, C-terminal amide; N-terminal biotin when captured on the SA chip); test: Biacore, 37°C, Fab over CGRP on SA chip
T2 construct: also called rat α (1-37); α-rat
T2 peptide: T1 peptide with A1S, D3N, N25D, K35E
Method: as §1

Kd (human α-CGRP 1-37 (WT)): 0.73 nM | koff (human α-CGRP 1-37 (WT)): 0.000116 s⁻¹ | Kd (rat α-CGRP (1-37)): 61.1 nM | koff (rat α-CGRP (1-37)): 0.0011 s⁻¹
B1: G1 variant M22 Fab (Fab, V domains shown)
VH: EVQLVESGGGLVQPGGSLRLSCAASGFTFSNYWISWVRQAPGKGLEWVAEIRSESDASATHYAEAVKGRFTISRDNAKNSLYLQMNSLRAEDTAVYYCTAYFDYGLAIQNYWGQGTLVTVSS
VL: EIVLTQSPATLSLSPGERATLSCKASKWVTTYVSWYQQKPGQAPRLLIYGASNRYLGIPARFSGSGSGTDFTLTISSLEPEDFAVYYCSQSYNYPYTFGQGTKLEIK
notes: Fab; constant domains as m1

Kd (human α-CGRP 1-37 (WT)): 2.38 nM | koff (human α-CGRP 1-37 (WT)): 0.00038 s⁻¹ | Kd (rat α-CGRP (1-37)): 199 nM | koff (rat α-CGRP (1-37)): 0.00359 s⁻¹
B2: G1 variant M29 Fab (Fab, V domains shown)
VH: B1 VH with A100V
VL: B1 VL with W28N, T30G
notes: Fab; constant domains as m1

Kd (human α-CGRP 1-37 (WT)): 0.93 nM | koff (human α-CGRP 1-37 (WT)): 0.000148 s⁻¹ | Kd (rat α-CGRP (1-37)): 51.3 nM | koff (rat α-CGRP (1-37)): 0.000924 s⁻¹
B3: G1 variant M26 Fab (Fab, V domains shown)
VH: B1 VH with A57G, A100V
VL: B1 VL with W28N
notes: Fab; constant domains as m1

Kd (human α-CGRP 1-37 (WT)): 1.23 nM | koff (human α-CGRP 1-37 (WT)): 0.000142 s⁻¹ | Kd (rat α-CGRP (1-37)): 15.2 nM | koff (rat α-CGRP (1-37)): 0.000695 s⁻¹
B4: G1 variant M21 Fab (Fab, V domains shown)
VH: B1 VH with T99S
VL: B1 VL
notes: Fab; constant domains as m1

Kd (human α-CGRP 1-37 (WT)): 0.63 nM | koff (human α-CGRP 1-37 (WT)): 0.000101 s⁻¹ | Kd (rat α-CGRP (1-37)): 108 nM | koff (rat α-CGRP (1-37)): 0.00194 s⁻¹
B5: G1 variant M12 Fab (Fab, V domains shown)
VH: B1 VH with T99S, A100V
VL: B1 VL with W28R
notes: Fab; constant domains as m1

Kd (human α-CGRP 1-37 (WT)): 1.08 nM | koff (human α-CGRP 1-37 (WT)): 0.000173 s⁻¹ | Kd (rat α-CGRP (1-37)): 83.9 nM | koff (rat α-CGRP (1-37)): 0.00151 s⁻¹
B6: G1 variant M10 Fab (Fab, V domains shown)
VH: B1 VH with T99S, A100S
VL: B1 VL with W28R
notes: Fab; constant domains as m1

Kd (human α-CGRP 1-37 (WT)): 1.69 nM | koff (human α-CGRP 1-37 (WT)): 0.000271 s⁻¹ | Kd (rat α-CGRP (1-37)): 164 nM | koff (rat α-CGRP (1-37)): 0.00296 s⁻¹
B7: G1 variant M32 Fab (Fab, V domains shown)
VH: B1 VH with E54K, A57H, A100V
VL: B1 VL with W28N, T30G
notes: Fab; constant domains as m1

Kd (human α-CGRP 1-37 (WT)): 4.69 nM | koff (human α-CGRP 1-37 (WT)): 0.00075 s⁻¹ | Kd (rat α-CGRP (1-37)): 512 nM | koff (rat α-CGRP (1-37)): 0.00922 s⁻¹
B8: G1 variant M33 Fab (Fab, V domains shown)
VH: B1 VH with E54K, A57N, S58G, A100V
VL: B1 VL with W28N, T30G
notes: Fab; constant domains as m1

Kd (human α-CGRP 1-37 (WT)): 0.83 nM | koff (human α-CGRP 1-37 (WT)): 0.000133 s⁻¹ | Kd (rat α-CGRP (1-37)): 43.6 nM | koff (rat α-CGRP (1-37)): 0.000784 s⁻¹
B9: G1 variant M6 Fab (Fab, V domains shown)
VH: B1 VH with T99N
VL: B1 VL with W28R
notes: Fab; constant domains as m1

Kd (human α-CGRP 1-37 (WT)): 1.52 nM | koff (human α-CGRP 1-37 (WT)): 0.000243 s⁻¹ | Kd (rat α-CGRP (1-37)): 51 nM | koff (rat α-CGRP (1-37)): 0.000918 s⁻¹
B10: G1 variant M7 Fab (Fab, V domains shown)
VH: B1 VH with T99N, A100C
VL: B1 VL with W28R
notes: Fab; constant domains as m1

Kd (human α-CGRP 1-37 (WT)): 1.77 nM | koff (human α-CGRP 1-37 (WT)): 0.000283 s⁻¹ | Kd (rat α-CGRP (1-37)): 268 nM | koff (rat α-CGRP (1-37)): 0.00483 s⁻¹
B11: G1 variant M11 Fab (Fab, V domains shown)
VH: B1 VH with T99S, A100T
VL: B1 VL with W28R
notes: Fab; constant domains as m1

Kd (human α-CGRP 1-37 (WT)): 1.16 nM | koff (human α-CGRP 1-37 (WT)): 0.000186 s⁻¹ | Kd (rat α-CGRP (1-37)): 102 nM | koff (rat α-CGRP (1-37)): 0.00184 s⁻¹
B12: G1 variant M13 Fab (Fab, V domains shown)
VH: B1 VH with A100G
VL: B1 VL with W28R
notes: Fab; constant domains as m1

Kd (human α-CGRP 1-37 (WT)): 0.43 nM | koff (human α-CGRP 1-37 (WT)): 6.95e-05 s⁻¹ | Kd (rat α-CGRP (1-37)): 84.4 nM | koff (rat α-CGRP (1-37)): 0.00152 s⁻¹
B13: G1 variant M4 Fab (Fab, V domains shown)
VH: B1 VH with T99A, A100V
VL: B1 VL with W28R
notes: Fab; constant domains as m1

Kd (human α-CGRP 1-37 (WT)): 0.2 nM | koff (human α-CGRP 1-37 (WT)): 3.22e-05 s⁻¹ | Kd (rat α-CGRP (1-37)): 40.8 nM | koff (rat α-CGRP (1-37)): 0.000735 s⁻¹
B14: G1 variant M5 Fab (Fab, V domains shown)
VH: B1 VH with T99A, A100Y
VL: B1 VL with W28R
notes: Fab; constant domains as m1

Kd (human α-CGRP 1-37 (WT)): ≤ 0.06 nM | koff (human α-CGRP 1-37 (WT)): ≤ 1e-05 s⁻¹
B15: G1 variant M9 Fab (Fab, V domains shown)
VH: B1 VH with T99N, A100Y
VL: B1 VL with W28R
notes: Fab; constant domains as m1

Kd (human α-CGRP 1-37 (WT)): 1.03 nM | koff (human α-CGRP 1-37 (WT)): 0.000165 s⁻¹ | Kd (rat α-CGRP (1-37)): 55.3 nM | koff (rat α-CGRP (1-37)): 0.000996 s⁻¹
B16: G1 variant M16 Fab (Fab, V domains shown)
VH: B1 VH with A100S
VL: B1 VL with W28R
notes: Fab; constant domains as m1

Kd (human α-CGRP 1-37 (WT)): 0.62 nM | koff (human α-CGRP 1-37 (WT)): 9.96e-05 s⁻¹ | Kd (rat α-CGRP (1-37)): 69.4 nM | koff (rat α-CGRP (1-37)): 0.00125 s⁻¹
B17: G1 variant M28 Fab (Fab, V domains shown)
VH: B1 VH with E54R, A57N, A100V
VL: B1 VL with W28N, T30D
notes: Fab; constant domains as m1
